In the supplement of paper PMC12042874:
± gives the uncertainty stated by the source.

Assay: amyloid nucleation score (Sup35N fusion, yeast selection) (log enrichment); library NNK3; higher = more nucleation; inactive = no reads after selection
Method in brief: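 Peptides of 20 random codons, each fused to Sup35N, were expressed in psi-negative yeast. Cells were induced with 100 μM copper sulfate for 24 hours and grown 7 days at 30°C on medium lacking adenine and uracil, and plasmid inserts before and after selection were Illumina-sequenced. Nucleation scores are DiMSum log enrichments of output over input reads, centred on the mode score of non-aggregating sequences, and sequences under 100 input reads were excluded.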

Amyloid nucleation score, -0.039 ± 0.66:
PLPLCKVM

Amyloid nucleation score, 0.071 ± 0.38:
MFYVVLSYK

Amyloid nucleation score, 0.508 ± 0.33:
VFVAMNVFMVWICRLQGSLT

Amyloid nucleation score, 1.51 ± 0.089:
KIQRYNILSGTCVFI

Amyloid nucleation score, 0.22 ± 0.9:
CWQFK

Amyloid nucleation score, 1.39 ± 0.15:
VMGVAPSYASTYLLVILNMG

Amyloid nucleation score, -0.561 ± 0.82:
ERSITGYNPPRRV

Amyloid nucleation score, 1.18 ± 0.091:
CCFIYECSLRNLSALVDDQR

Amyloid nucleation score, -0.148 ± 1:
WDNITRNWRSCPHQMSLRYL

Amyloid nucleation score, 0.222 ± 0.31:
FGGAYFVTPGAYFVWYSFLG

Amyloid nucleation score, 1.39 ± 0.1:
IINFIVCMMSVQNMCCALFG

Amyloid nucleation score, 1.35 ± 0.077:
NVLLCINTRYR

Amyloid nucleation score, -0.37 ± 0.39:
FVMFAKASRGCTVSLCVYDV

Amyloid nucleation score, 1.75 ± 0.11:
WTYIWCAN

Amyloid nucleation score, 1.89 ± 0.069:
VAFGWDLFFNVLNLHCNVSN

Amyloid nucleation score, 0.13 ± 0.66:
YWFGWKGGRSVRRVSWSADW

Amyloid nucleation score, 0.045 ± 0.8:
TVIVCVTFLRGWVSSACGLS

Amyloid nucleation score, 1.27 ± 0.096:
SVTLGWSTRCCF

Amyloid nucleation score, 1.87 ± 0.064:
FYNFWWCI

Amyloid nucleation score, 0.131 ± 0.24:
MIRYSVQ

Amyloid nucleation score, inactive:
MRGFFCRIH, SVSEFSFGSKCIVRRLGI, MASIVFFCMPSETNFVV, FWTGVACNTAGCCLGYESLR, WLSNREVFKMYIRLVQLAWL, MLNAIGCLSWSQFPESLLLG, GYSTRYLSV, TFLCSENQAAMWGIRTGSLL, PVQACRCKSH, CLSLDQWWLHRYDHLVLGET, VRMGVNLGNKTLNTWESSCD, LQLLENQSNAIYWHGGNESD, FRDVPGLLCR, FFIDFVGTRCFN, FLVWDFRSERKRKKI, RMRKSFLFVWIDFILKR, YSLCLGIAHVRMSTARYYLA, SKIFVNIDYVKVFRMICEWR, HIWGIRKCDPPLTVVMFQSL, SVFDKGESGRRYGGEV, EVKAMTWLVIVETIVFMS, HVNSMA, SHCYTRVLCTLVVFT, TGLVMNKLHLMCDMYGIISL, GVGCTKSECRSICMPKHP, NRPSMSRGVDTRLMSLHETL, VCSVTFMLVLLCMRHCLITR, FLMDNMVSGIVFFTSSVIRG, QFFCFNRLWDWVTFRVIDMS, REYPYDMYSHLSLFDARHPG, NNSFNYGNHGRSSVFNNLRC, VNYRTQRRTQYTQCTRKVGG, SDCCYRTYVEIQKWSLVF, CIFYDSLVDWDHHYSHKGWH, WFFETQLSLWWVNGQDLAEV, LQPCKNMSTLSQNPTLRCPF, QDNVKVVGAVGFYDILNGVE, RNWLMANS, FCFYRKKGVVGCILFYACFR, VFLPLPPCTC, SGGLSSLILSCFHIFIIKTY, ESADATLREAKSSVYKKYRY, GNLASICVRLCWLCARLWST, RGQRVSSVMRRTQVGDWNTP, DLGLERLAFS, LWDALDKDSESVIDMGQNEG, QFPSFANIIANCPLGFLWYA, SFFRNRGGEDFFISWWFENN, QVTLWFKKNLSELM, YNKGFALIRIVRQTERRLHT, LVGHEFTAGSNYDSDLGTV, SMSMDAYPQPPLNAMVLVSH, DVMKICMKLSLHICTVHISS, WLNEM, SIVSRLLDSIPMMIMSFYFG, SSFPGWDIECIC, WSLSYHRKMIFGDTCVTYIG, TSVLSTGCYTRTVTNVNGSI, NGYLACSPFS, SRITNHDD, HKSINVIRDPGKIVFLTEVI, FFVHRCIYVNGWKGQTHSSQ, VEIKYSVFLRWHVMRDDRLD, SRTLTVYRVCHHIESSTNNF, RYVLR, NTGYVVLHKDFHSLASSTKV, DGTMANRIVVF, DEANRYPRYLYILERLAYRK, TGCSSF, DFHIKERG, TSKRSYVSTGYTNWFTFRI, FIKHVRIKFTWSVSREF, ILYNFEDVLWAGSLRIGLNL, SYTSFSHSPCTVLMKTWPPK, FDLFFACFPSRETGLKSCKT, PVYERPRCQNFLGCYWSCAQ, AVVFCVSEYYQQKRYLNSSQ, KHVNLWSVGWFLGFLVWSRA, RTFVNGSAEYANASHWEYPN, KKYLTNVDLNVSN, TRILVRTGYHLLFLEG, KLCGHIIYCVV, SWCVDTSIQFPKAFNIVCGF, PFMCGRAIRLSFREFTRLKN, SLKMK, NCPSWGGFGIATSGQR, FLAGDWSKGFNKYYTYYISK, YNSYK, LCIWNWFLSSNRMLRKLAD, LLYARVIRRMCPKVVLFLSD, VMMFYNILHSQIDKLFKLLA, HEVAAPRRRHSSMLVAGSAG, KDTQWALYRNL, MMVMWD, LIRHFNKRVTSCNVVLLYNG, ARSDGA, GSMSSCLVKRLNC, GYSRG, GDLKLGLVIYESCGSMVMSW, VRVSNYTRVLVYKDRVS, TDSYICGNMLHKRALKSTSM, TWVILCKNSWFMLI, AICSPTLLDYYFLFKVLPGS, WRCLYYMQAYSSN, QSSLLSTVNGVFKSDTRVRV, IAVPRWKDSDTQKVV, HFKSESRFTN, CVGVF, CFLSGWTLTVSVLLVDYRKL, NLEGRKRLMILVFKCCELAI, SSLCTL, IIVRSTDGLSCRSDSIYECD, RINWTMMCKTFLRFINKS, VRTRMEPRG, FSRSTTDVSINSGWKM, FEWFQCIYA, FDLRSWCM, FSGTIGILFFMTWSTVLPWG

Amyloid nucleation score, 0.179 ± 0.85:
IRRQYIYHSNEYRMMHYSES

Amyloid nucleation score, -0.224 ± 1.1:
LKDNPNSLWC

Amyloid nucleation score, 1.61 ± 0.066:
CKIGYPTYNVGVIVSLVVRM

Amyloid nucleation score, 1.05 ± 0.2:
GCVLCGIPSAWRSPGASSDA

Amyloid nucleation score, 2.24 ± 0.088:
VYNVTITNYRNLPAM

Amyloid nucleation score, 1.2 ± 0.15:
CSIYNCMSHHKRVTG

Amyloid nucleation score, -0.519 ± 0.8:
VKSLIELCRYNRPLALDLNI

Amyloid nucleation score, 2.62 ± 0.063:
RSIITGVKVDLFNLAVTVFL

Amyloid nucleation score, -0.447 ± 0.74:
IVTTQHMNGRSDYWITYSSV

Amyloid nucleation score, 0.708 ± 0.25:
IKFDGIIADFSSITVVLECT

Amyloid nucleation score, 2.79 ± 0.058:
VSFYSSCVWIDARSCDYCYF

Amyloid nucleation score, 2.41 ± 0.052:
SGIQVRGQTSIVLLNF

Amyloid nucleation score, 0.474 ± 0.65:
LDMSFSGYTRVLARSISTDA

Amyloid nucleation score, -0.291 ± 1.4:
DSSSWSHL

Amyloid nucleation score, 1.59 ± 0.12:
NFMPNKYCNVELVFWGDLGI

Amyloid nucleation score, 1.01 ± 0.12:
VSLLNITTVMSSPRIQGKHV

Amyloid nucleation score, -0.093 ± 0.48:
SLGNYHTLGMVFRLA

Amyloid nucleation score, -0.038 ± 0.75:
SRSVMIPVNS

Amyloid nucleation score, 2.7 ± 0.056:
LGYWKFSIRHFEGGRLQIHF

Amyloid nucleation score, 1.74 ± 0.084:
RCNALSLWIYNEKSWNNTWY

Amyloid nucleation score, 0.281 ± 0.27:
KDCASGSRSTAIFAFCSGAF

Amyloid nucleation score, 0.09 ± 0.88:
LLMSLL

Amyloid nucleation score, 2.8 ± 0.063:
VIQIYIMRCLYDYYI
